According to patent EP1262190A1 (Takeda Chemical Industries, Ltd., dated 2001):
Where no end group is shown, it is not given here.

Legend:
human 0T7T022 receptor = human 0T7T022 receptor (human); experiment: cell-based or functional assay
[1] = target: rat cerebellum-derived novel G protein-coupled receptor protein r0T7T022L (rat); experiment: cell-based or functional assay

human 0T7T022 receptor (human), sequence (Q9GZQ6 whole entry): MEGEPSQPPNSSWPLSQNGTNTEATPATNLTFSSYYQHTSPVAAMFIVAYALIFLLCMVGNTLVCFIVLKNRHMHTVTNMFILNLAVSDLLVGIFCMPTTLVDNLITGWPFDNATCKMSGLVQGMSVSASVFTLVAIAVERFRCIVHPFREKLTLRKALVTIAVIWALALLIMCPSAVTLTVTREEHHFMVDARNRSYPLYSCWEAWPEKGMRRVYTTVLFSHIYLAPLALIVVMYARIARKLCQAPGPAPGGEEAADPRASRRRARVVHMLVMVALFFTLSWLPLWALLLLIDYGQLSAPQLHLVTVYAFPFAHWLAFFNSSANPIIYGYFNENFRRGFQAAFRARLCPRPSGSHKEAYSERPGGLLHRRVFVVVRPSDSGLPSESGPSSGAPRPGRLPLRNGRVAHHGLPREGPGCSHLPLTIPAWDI

Binder | ED50, inhibition of the cAMP level increased by forskolin (human 0T7T022 receptor) [nM] | IC50 of inhibiting the cAMP production (forskolin-stimulated) [1] [nM]
NPFF [NPFF (peptide shown by Asn-Pro-Phe-Phe)] | 140 | –
LPLRF-NH2 [LPLRFamide (peptide shown by Leu-Pro-Leu-Arg-Phe-NH2)] | 36 | –
MPHSFANLPLRF-NH2 [peptide MPHSFANLPLRFamide (Met-Pro-His-Ser-Phe-Ala-Asn-Leu-Pro-Leu-Arg-Phe-NH2)] | 4.5 | 0.5
PQRF-NH2 [PQRFamide (peptide shown by Pro-Gln-Arg-Phe-NH2)] | ≥ 1000 | –
